Assay results from patent publication US20210333284A1, “METHODS AND MATERIALS FOR LARGE-SCALE ASSESSMENT OF LIGAND BINDING SELECTIVITY OF G-QUADRUPLEX RECOGNITION USING CUSTOM G4 MICROARRAYS” (Purdue Research Foundation, priority 2020, published 2021).

B1: PIF1: GST-tagged human PIF1 helicase (protein, listed as Homo sapiens)
chain: MLSGIEAAAGEYEDSELRCRVAVEELSPGGQPRRRQALRTAELSLGRNERRELMLRLQAPGPAGRPRCFPLRAARLFTRFAEAGRSTLRLPAHDTPGAGAVQLLLSDCPPDRLRRFLRTLRLKLAAAPGPGPASARAQLLGPRPRDFVTISPVQPEERRLRAATRVPDTTLVKRPVEPQAGAEPSTEAPRWPLPVKRLSLPSTKPQLSEEQAAVLRAVLKGQSIFFTGSAGTGKSYLLKRILGSLPPTGTVATASTGVAACHIGGTTLHAFAGIGSGQAPLAQCVALAQRPGVRQGWLNCQRLVIDEISMVEADLFDKLEAVARAVRQQNKPFGGIQLIICGDFLQLPPVTKGSQPPRFCFQSKSWKRCVPVTLELTKVWRQADQTFISLLQAVRLGRCSDEVTRQLQATASHKVGRDGIVATRLCTHQDDVALTNERRLQELPGKVHRFEAMDSNPELASTLDAQCPVSQLLQLKLGAQVMLVKNLSVSRGLVNGARGVVVGFEAEGRGLPQVRFLCGVTEVIHADRWTVQATGGQLLSRQQLPLQLAWAMSIHKSQGMTLDCVEISLGRVFASGQAYVALSRARSLQGLRVLDFDPMAVRCDPRVLHFYATLRRGRSLSLESPDDDEAASDQENMDPIL
modifications: GST tag
notes: GST-tagged human PIF1 helicase

Columns and labels:
[1] = test system: genomic G4 sequences (folded G4 structures); assay: G4 microarray binding in potassium vs lithium; parameters: species or system human; conditions: GST-tagged proteins
Method: The binding specificities of several molecules were evaluated. Microarrays were preincubated with 100 mM potassium chloride to induce G4 formation. Binding of each molecule is measured by detection of fluorescence intensity at each of the microarray features. BG4 and pyridostatin were conjugated with Cy5. Cellular proteins were expressed as chimeric proteins containing GST, and binding for these proteins was detected using an anti-GST antibody conjugated with Cy5 (Materials and Methods). G4 Structures Fold on DNA Microarrays. To evaluate the utility of DNA microarrays to examine G4-binding specificity, a Cy5-labeled pyridostatin (Cy5-PDS), a small molecule known to bind broadly to G4 structures, was synthesized.^13 A Cy5 conjugated version of BG4 (Cy5-BG4), an antibody developed to bind G4s, was also obtained.^31 FIG. 1A, B presents replicate binding intensities to 15,491 DNA sequences on the Design 3 microarray using either Cy5-PDS or Cy5-BG4. For Cy5-PDS, robust binding is observed at 1 μM, with fluorescence intensities ranging over 100-fold between strongest and weakest bound DNA features. The fluorescence-binding intensities of Cy5-PDS are proportional to the concentration of pyridostatin used). […] Antibody binding to non-G4 features increases with higher concentrations, and in some cases non-G4 sequences are more strongly bound by Cy5-BG4 than G4 sequences, including multiple cytosine-rich negative control sequences. Inhibition of G4 Formation Inhibits Cy5-PDS and Cy5-BG4 Binding. Cy5-PDS and Cy5-BG4 binding under conditions that inhibit G4 formation was examined to evaluate if G4 structures form on the microarray and are required for binding. […] It is noted that many sequences, in addition to the oncogene G4 sequences, are capable of forming G4s. […] For Cy5-BG4, the decrease in binding was up to 270-fold for genomic G4 sequences, while binding to negative controls decreased up to 23-fold (FIG. 1D,). In a second experiment, Cy5-PDS binding following a primer extension reaction that produces dsDNA^24 was examined (see Materials and Methods), anticipating that dsDNA would predominate over G4 formation^13. […] 2,27,28
(§1) Microarrays were preincubated with a 100 mM potassium chloride solution for 1 h at RT to induce G4 formation. Protein binding microarray experiments were then performed as previously described.^23 Microarrays were blocked with 4% nonfat dry milk in a potassium phosphate buffer before incubation with proteins or small molecules. Expressed proteins were blocked with 4% nonfat dry milk, ssDNA, and BSA. For the validation experiments, microarrays were also treated with 100 mM lithium chloride to inhibit G4 formation. For experiments examining dsDNA, single-stranded DNA probes were made double-stranded using a primer complementary to a 24-mer constant sequence following the method described previously.^23,24 Double stranding efficiency was monitored using 4% Cy3-dCTP.
Protein or molecule-bound microarrays were scanned with the G5761A SureScan Dx Microarray Scanner System (Agilent) to detect a Cy5 signal at two laser settings (30 and 100 PMT) to ensure signal intensities were below saturation. Spot intensities from microarray images were extracted using the Agilent Feature Extraction Software and are reported as raw fluorescence units. All binding assays were performed at least twice, with high agreement between replicates (R>0.8). Microarrays with the fewest number of saturated spots were used for further analysis. Median intensity was then computed for probes containing identical sequence on each microarray. […]

human telomeric G4s = assay: G4 microarray direct binding to telomeric G4s; conditions: GST-tagged helicases
Method: as §1
Protein or molecule-bound microarrays were scanned with the G5761A SureScan Dx Microarray Scanner System (Agilent) to detect a Cy5 signal at two laser settings (30 and 100 PMT) to ensure signal intensities were below saturation. Spot intensities from microarray images were extracted using the Agilent Feature Extraction Software and are reported as raw fluorescence units. […] The measured array data (Design 3, PDS) and predictions were normalized using the following
DNA Microarray Binding Experiments DNA microarray experiments were performed and analyzed as described previously. […]

[2] = test system: G4 sequences and non-G4 ssDNA controls on Design 3 microarray; assay: Custom G4 DNA microarray, direct binding by fluorescence intensity; parameters: species or system human
Text: Three Agilent DNA microarrays (TABLE 1) were designed, each with four identical sectors that contain ca.177,440 ssDNA 60-mers to examine G4-binding specificity. Arrays were designed with 9-73 replicates of each unique sequence to ensure statistical significance (TABLE 1). Each microarray contains different sets of G4 variants designed to examine several sequence parameters that affect G4 formation and binding specificity such as loop length (Design 1), loop sequence (Design 2), tail sequence (Design 2), and single nucleotide variants of six known G4s (Design 3). All microarrays include a set of 19 sequences from human telomeres and oncogene promoters known to form G4s with various topologies as positive controls (TABLE 2). Designs 2 and 3 have a set of 295 additional G4-forming sequences from the literature.^30 For the loop length variants, the length of the tails and loops of four different MYC G4 sequences (MYC Pu27, MYC Pu18ntd, MYC Pu22, and MYC Pu22 NMR mutant) was increased up to five times their length. Loop and tail sequences were varied using A, T, G, and C polynucleotide stretches and a subset of combinations. For the loop sequence variants, 4,096 sequences of the form NGGGNGGGNNGGGNGGGN (SEQ ID NO: 2) and 64 variants of the form GGGNGGGNGGGNGGG (SEQ ID NO: 1) were generated. For the tail variants, 256 versions of the major MYC G4 with all possible dinucleotide tails ([…] (SEQ ID NO: 3)) were generated. […]
The binding specificities of several molecules were evaluated. […] Binding of each molecule is measured by detection of fluorescence intensity at each of the microarray features. […] Cellular proteins were expressed as chimeric proteins containing GST, and binding for these proteins was detected using an anti-GST antibody conjugated with Cy5 (Materials and Methods). […] For Cy5-PDS, robust binding is observed at 1 μM, with fluorescence intensities ranging over 100-fold between strongest and weakest bound DNA features. The fluorescence-binding intensities of Cy5-PDS are proportional to the concentration of pyridostatin used). […]

[3] = test system: G4 sequences on custom G4 microarray; assay: G4 microarray competition of unlabeled molecule with Cy5-PDS; assay type: binding, human
Text: Whether the microarray platform could be used to reveal the G4-binding specificity of unlabeled molecules via a competition with Cy5-PDS binding was explored. Three example molecules, unlabeled PDS, TMPyP4 (a planar molecule that nonspecifically binds G4 structures^14), and DC-34 (a molecule that selectively binds the MYC G4^15) were examined. […] The binding of unlabeled DC-34 was examined (FIG. 4). There appear to be no features that are better-bound in the presence of DC-34. […] This is consistent with the observation that DC-34 binds the top and bottom surfaces of the G4 and makes specific contacts with purines in the tail sequences.^15 The general properties of features in which DC-34 reduced binding of Cy5-PDS (ratio of PDS/PDS+DC-34) were also examined.
as §1
Protein or molecule-bound microarrays were scanned with the G5761A SureScan Dx Microarray Scanner System (Agilent) to detect a Cy5 signal at two laser settings (30 and 100 PMT) to ensure signal intensities were below saturation. Spot intensities from microarray images were extracted using the Agilent Feature Extraction Software and are reported as raw fluorescence units. All binding assays were performed at least twice, with high agreement between replicates (R>0.8). Microarrays with the fewest number of saturated spots were used for further analysis. […] The measured array data (Design 3, PDS) and predictions were normalized using the following
Custom G4 microarrays have been designed that contain a total of 19,249 G4 DNA sequences [31, the entirety of disclosure of which, including the supplemental information, is incorporated herein by reference]. […] After washing to remove the unbound Cy5-PDS and BMVC, the fluorescence intensities of Cy5-PDS bound to DNA oligonucleotides were detected using a fluorescence scanner. The binding selectivity of BMVC to different G4 structures was assessed by measuring the relative fluorescence intensity reduction of Cy5-PDS as BMVC concentration increased. […]

Molecule | effect of lithium chloride (inhibiting G4 formation) on protein binding [1] | binding to hTelomeric (hyb-2 G4) and hTelomeric1 (hyb-1 G4) sequences (human telomeric G4s) | further results
CNBP: GST-tagged human cellular nucleic acid binding protein | does not inhibit DNA binding | – | –
WRN: GST-tagged human Werner syndrome RecQ like helicase | weakened binding | can bind both hTelomeric (hyb-2 G4) and hTelomeric1 (hyb-1 G4) sequences | –
IGF2: GST-tagged human insulin-like growth factor II, full length ORF | weakened binding | – | binding specificity, G4 vs non-G4 ssDNA sequences [2]: bind only G4 sequences
NCCOc1cc(C(=O)Nc2cc(OCCN)c3ccccc3n2)nc(C(=O)Nc2cc(OCCN)c3ccccc3n2)c1 [pyridostatin] | – | – | effect of unlabeled competitor on Cy5-PDS binding ([3]; 1 μM Cy5-PDS, various concentrations of unlabeled competitor): no change in binding specificity; binding selectivity profile to different G4 sequences ([3]; 1 μM unlabeled ligand and 1 μM Cy5-PDS): bind less selectively
BLM: GST-tagged human Bloom's syndrome protein helicase | weakened binding | specifically binds the wt hTelomeric sequence that forms hyb-2 G4 | –
B1 | does not inhibit DNA binding | – | –
